Assay results from US20180298101A1.

How the values were obtained:
[1] = biological target: JAK1 kinase domain (JH1) (human) (UniProt P23458); experiment: cell-based or functional assay
JAK2 kinase domain (JH1) = JAK2 kinase domain (JH1) (UniProt O60674); experiment: cell-based or functional assay
JAK3 kinase domain (JH1) = JAK3 kinase domain (JH1) (UniProt P52333); experiment: cell-based or functional assay
TYK2 kinase domain (JH1) = TYK2 kinase domain (JH1) (UniProt P29597); experiment: cell-based or functional assay
[2] = biological target: JAK1-Y1034 phosphopeptide with an alanine substitution at the +3 position (human); experiment: ITC, alanine-substituted phosphopeptide
[3] = biological target: JAK1 activation loop phosphopeptide (Tyr1034 phosphorylated) (human); experiment: ITC

For “hCIS-SH2-BC complex (ternary complex of human GST-CIS-SH2 construct, residues 66-258 with PEST region 174-202 deleted, with Elongin B and Elongin C) (from UniProt Q9NSE2 66-258; Q15370 1-118; P83940 17-112)”, the IC50 of inhibition of JAK1 phosphorylation of a substrate peptide (in vitro kinase assay) [1] was 120 nM, the efficiency of JAK1 kinase inhibition against SOCS1 as reference [1] was 100 fold and the fold difference of kinase inhibition, JAK1 against JAK2 (in vitro kinase assay) (JAK2 kinase domain (JH1)) was 20 fold. The fold difference of kinase inhibition, JAK1 against JAK3 (in vitro kinase assay) (JAK3 kinase domain (JH1)) was 20 fold and the fold difference of kinase inhibition, JAK1 against TYK2 (in vitro kinase assay) (TYK2 kinase domain (JH1)) was 20 fold.

With “human CIS lacking both the N-terminal region (residues 1-66) and the PEST motif (ΔNT/ΔPEST) in trimeric complex with elongin B and elongin C (from UniProt Q9NSE2 67-258; Q15370 1-118; Q15369 17-112)” the IC50 of inhibition of the JAK1 kinase domain (JH1), in vitro kinase reaction [1] was 600 nM and the fold reduction of binding against the wild-type JAK1-Y1034 phosphopeptide [2] was 4 fold.

“human CIS lacking the N-terminal 34 residues (ΔN34) in trimeric complex with elongin B and elongin C (from UniProt Q9NSE2 35-258; Q15370 1-118; Q15369 17-112)” showed a Kd [3] of 2200 to 10000 nM.
